Experiments:
[1] = target: T1, ALPI expressed on the surface of CHO cells (CHO-ALPI) (Homo sapiens, UniProt P09923); test: Cell-surface binding by flow cytometry, CHO-ALPI; details: for KDapp CHO-ALPI: VHH His proteins, up to 350 nM; for KDapp CHO-ALPI / binding to ALPI on CHO cells (in words): flow cytometry; for ALPI MFI as % of the ALPP MFI: VHH His at 350 nM; for binding to ALPI on CHO cells (in words): VHH proteins
T1 construct: expressed in transfected cells
T1 sequence (P09923 20-503 limits assumed): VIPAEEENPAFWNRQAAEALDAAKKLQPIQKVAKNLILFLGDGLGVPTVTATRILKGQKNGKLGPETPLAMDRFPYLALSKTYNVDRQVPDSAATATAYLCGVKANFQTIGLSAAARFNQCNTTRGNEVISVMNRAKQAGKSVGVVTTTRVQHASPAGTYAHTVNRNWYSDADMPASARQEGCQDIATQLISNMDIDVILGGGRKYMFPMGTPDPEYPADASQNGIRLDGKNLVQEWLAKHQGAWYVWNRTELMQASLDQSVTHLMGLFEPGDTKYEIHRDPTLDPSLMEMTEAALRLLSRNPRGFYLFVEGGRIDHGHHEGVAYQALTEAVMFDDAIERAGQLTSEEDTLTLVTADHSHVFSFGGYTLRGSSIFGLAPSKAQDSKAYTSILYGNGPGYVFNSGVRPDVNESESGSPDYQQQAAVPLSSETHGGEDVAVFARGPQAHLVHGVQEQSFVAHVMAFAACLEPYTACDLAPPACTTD
Description: (§1) C-terminal His tagged VHH proteins were assessed for ALPP, ALPPL2, ALPI and ALPL cell-surface binding by flow cytometry. Binders encompassing different epitope bins were screened on CHO cells stably expressing ALPP, ALPPL2, ALPI or ALPL. High levels of cell-surface proteins expression were confirmed for each of the cell-lines by flow cytometry.
(§2) Cell surface binding of test agents to hALPP isoforms was characterized in four CHO-ALPP isoform stably transfected cell lines (CHO-ALPP, CHO-ALPPL2, CHO-ALPI and CHO-ALPL) and the resulting KDapp values determined. Adherent cells were detached from tissue culture flasks by incubating with 0.1% EDTA/PBS solution at 37° C. for ~10 minutes or until cells detached easily. Cells were re-suspended in ice-cold PBS/2% FCS in 15 ml tubes and centrifuged at 1700 rpm for 5 mins at 4° C. Supernatant was removed and the cell pellet re-suspended in PBS/2% FCS. A cell count was performed using a Chemometec Nucleocounter NC-202 and 2.5×10^5 cells were aliquoted per test sample into a 96 well plate. Cells were incubated with 100 μl of test agents at a range of concentrations, plus controls for 1 hr on ice. The sample plate was centrifuged at 1700 rpm for 5 mins at 4° C. The supernatant was removed, and a wash performed by re-suspending the cell pellets in 0.25 mL of ice-cold PBS/2% FCS using a multichannel pipette. Samples were again centrifuged at 1700 rpm for 5 min at 4° C. Supernatant was removed and two further washes performed as described. After the final wash and centrifugation step, excess liquid was removed by blotting the plate on tissue paper. Binding of VHH (His6 tagged) agents was determined by adding 100 μl of anti-x6His tag Ab (Abcam) per cell pellet sample as appropriate and incubating on ice for 30 mins. Wash steps were performed as described previously. Fitc-anti-mouse antibody (ThermoFisher) was used to detect binding of the VHH (His6 tagged) agents by incubating with the appropriate samples for 30 min on ice in the dark. Wash steps were performed as described previously. All cell pellets were finally re-suspended in […] of ice-cold PBS/2% FCS and left on ice in the dark prior to analysis on a Merck-Millipore Guava EasyCyte HT or Thermo Fisher Attune N×T flow cytometer.
(§3) VHH-hFc proteins were assessed for human ALPP, ALPPL2, ALPI and ALPL cell-surface binding by flow cytometry. Binders were screened on CHO cells stably expressing human ALPP, ALPPL2, ALPI or ALPL.
(§4) Cell surface binding of test agents to hALPP isoforms was characterized in four CHO-ALPP isoform transfectant cell lines (CHO-ALPP, CHO-ALPPL2, CHO-ALPI and CHO-ALPL) and the resulting KDapp values determined. Adherent cells were detached from tissue culture flasks by incubating with 0.1% EDTA/PBS solution at 37° C. for ~10 minutes or until cells detached easily. Cells were re-suspended in ice-cold PBS/2% FCS in 15 ml tubes and centrifuged at 1700 rpm for 5 mins at 4° C. Supernatant was removed and the cell pellet re-suspended in PBS/2% FCS. A cell count was performed using a Chemometec Nucleocounter NC-202 and 2.5×10^5 cells were aliquoted per test sample into a 96 well plate. Cells were incubated with 100 μl of test agents at a range of concentrations, plus controls for 1 hr on ice. The sample plate was centrifuged at 1700 rpm for 5 mins at 4° C. The supernatant was removed, and a wash performed by re-suspending the cell pellets in 0.25 mL of ice-cold PBS/2% FCS using a multichannel pipette. Samples were again centrifuged at 1700 rpm for 5 min at 4° C. Supernatant was removed and two further washes performed as described. After the final wash and centrifugation step, excess liquid was removed by blotting the plate on tissue paper. Binding of VHH-hFc agents was determined by adding 100 μl of Fitc-anti-human Ab (ThermoFisher) and incubating for 30 mins on ice in the dark. Wash steps were performed as described previously. […]

[2] = target: T2, ALPL expressed on the surface of CHO cells (CHO-ALPL) (Homo sapiens, UniProt P05186); test: Cell-surface binding by flow cytometry, CHO-ALPL; details: VHH His proteins
T2 construct: expressed in transfected cells
T2 sequence (P05186 18-501 limits assumed): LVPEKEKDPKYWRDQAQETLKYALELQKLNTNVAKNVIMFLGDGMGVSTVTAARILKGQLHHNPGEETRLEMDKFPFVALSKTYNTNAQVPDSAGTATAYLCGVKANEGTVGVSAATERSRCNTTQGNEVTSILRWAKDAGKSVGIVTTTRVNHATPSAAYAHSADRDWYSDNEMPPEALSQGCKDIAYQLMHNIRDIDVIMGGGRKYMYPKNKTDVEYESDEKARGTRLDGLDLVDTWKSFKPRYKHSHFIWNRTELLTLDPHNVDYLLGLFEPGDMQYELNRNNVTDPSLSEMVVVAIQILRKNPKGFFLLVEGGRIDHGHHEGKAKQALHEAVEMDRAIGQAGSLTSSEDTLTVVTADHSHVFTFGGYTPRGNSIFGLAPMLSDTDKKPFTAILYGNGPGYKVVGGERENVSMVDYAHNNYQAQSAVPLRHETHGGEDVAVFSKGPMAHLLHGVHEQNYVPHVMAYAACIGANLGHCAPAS
Description: as §1, §2, §3, §4

Molecule	KDapp CHO-ALPI [1]	KDapp CHO-ALPL [2]	ALPI MFI as % of the ALPP MFI [1] [%]	binding to ALPI on CHO cells (in words) [1]
E10: ALPP/ALPPL2 targeting VHH domain, SEQ ID NO: 31 (protein) VHH: QVQLVESGGGLVQAGGSLRLSCAVSGRALSDYNIGWFRQAPGKEREFVARKTWDGSSTRYDDSVKGRFTVSIEDAKNTAYLQMSSLKTEDTAVYYCAAGRYSRARGWEYDYWGQGTQVTVSS	No binding	No binding	–	–
F05: ALPP/ALPPL2 targeting VHH domain, SEQ ID NO: 34 (protein) VHH: QVQLVESGGGLVQAGGSLRLSCAASGRAFGDYNIGWFRQAPGKEREFVARRTWDGSSTRYDDSVKGRFTVSIDNAKNTAYLQMNSLKTEDTAVYYCAAGRYSRVRGWEYDYWGQGTQVTVSS	No binding	No binding	–	–
E06: ALPP/ALPPL2 targeting VHH domain, SEQ ID NO: 30 (protein) VHH: QVHLVESGGGLVQAGGSLRLSCAASRRSFSEYAMGWFRQAPGKEREFVAAIGWSGVIEYADSVKGRFTISRDNAKDTVYLQMNSLKPEDTAVYYCAAGLGIRVVSQTPAYWGQGTQVTVSS	No binding	No binding	–	–
A05: ALPP/ALPPL2 targeting VHH domain, SEQ ID NO: 16; tested C-terminally His-tagged (protein, C-terminal His tag, tested C-terminally His-tagged) VHH: QVQLVESGGGLVQAGASLTLSCAASGFTFNTRSIVWFRQAPGKEREAVSCISKVAGSTYYGDSVQGRFSSSTDNAKNTVSLQMNSLKPEDTAVYTCAASFAPNCYGWSVAANMEYWGEGTMVTVSS	No binding	No binding	–	–
B01: ALPP/ALPPL2 targeting VHH domain, SEQ ID NO: 20 (protein) VHH: QVQLVESGGGLVQAGGSLRLSCEVTRSPMPIDTMAWYRQAPGRQRELVAIISRSGSTNYADSVKGRFTISRNDTKSTMYKSTMYLKMNTLELEDTGVYYCNAVGLWNGAEYWGQGTQVTVSS	No binding	No binding	–	–

Now from value to molecule:

KDapp CHO-ALPI [1]	KDapp CHO-ALPL [2]	ALPI MFI as % of the ALPP MFI [1] [%]	binding to ALPI on CHO cells (in words) [1]	Molecule
No binding	No binding	–	–	C07: ALPP/ALPPL2 targeting VHH domain, SEQ ID NO: 25 (protein) VHH: QVQLVESGGGLVQAGESLRLACAASGTIFSGNAVGWYRQAPEKQREWVSSITDYGDTDYAEAVKGRFTISRDNAKNTVYLQMNSLKPEDTAVYYCYVYQRGESEEYWGQGTQVTVSS
Minimal	No binding	9.5	weak binding	D04: ALPP/ALPPL2 targeting VHH domain, SEQ ID NO: 26 (protein) VHH: QVQLVESGGGLVQPGGSLRLSCAASESTFSINVMGWYRQAPGKQRELVATITSGDITNYADSVKGRFTISRDNAENTVYLRTNSLKPEDTAVYYCNARGEYHSGNEYDYWGQGTQVTVSS
No binding	No binding	–	–	A06: ALPP/ALPPL2 targeting VHH domain, SEQ ID NO: 17; tested C-terminally His-tagged (protein, C-terminal His tag, tested C-terminally His-tagged) VHH: QVHLVESGGGLVQAGGSLRLSCAASGRTFLSMGWFRQAPGKEREFVAAISWTGGSTGYADSVKGRFTISRESDKETMYLQMNSLKPEDTAVYYCAARGDVYYGGDDATRYKYWGQGTQVTVSS
Minimal	No binding	1.3	minimal binding	F08: ALPP/ALPPL2 targeting VHH domain, SEQ ID NO: 35 (protein) VHH: QVQLVESGGGSVQAGGSLRLSCAASGPSLSNYAMGWFRQAPGKEREFVAGISWGGGRTSYTDSVKGRFTISRDNAKNTVYLQMNNLKPEDTGVYYCAGRYGRGRNVEYEYDYWGQGTQVTVSS
No binding	No binding	–	–	D10: ALPP targeting VHH domain, SEQ ID NO: 28 (protein) VHH: QVQLVESGGGLVQPGGSLRLSCAASGSIFSVNTMGWYRQAPGKQRDLVAVATSGGTIHYADSVKGRFTISRDNAKNTVYLQMNSLKPEDTAVYYCNLVVPYGMIAGDHDYWGQGTKVTVSS
